Here are results for 1 molecule from doi:10.1101/189324.

Where two headings read alike, the source gives them in different places.

Assay [1] deals with Insulin (purified, used in vitro).
Assay [2] has the same target. The experiment in a line: BLI. In general terms: Biolayer interferometry detects binding as a change in optical thickness at a sensor tip.
Assay [3] has the same target. The experiment in a line: BLI. The source holds these as a separate data set.

Usually Kd stands for the free concentration of one partner at which half of the binding sites on the other are occupied at equilibrium, for simple one-to-one binding. Higher therefore signals weaker binding.

B1: Recombinant His-tagged secretagogin (SCGN) (natural protein)
chain: MDNARRKTPARLDAACFWQIWQRFDKEEKGYIRETELDAFFDHLLAKSGTEDTLMEENVQKVKEQLMTSHNVSKEGRILMKELASMFLSEDENFLLFFRLETPLDNSVEFMQIWRKYDADSSGFISAAELCNFLRDLFLHHKKNISEAELEEYTSTMMKIFDKNKDGRLDLNDLARILALQENFLLQFKMDASSTEERKRDFEKIFAHYDVSKTGALEGPEVDGFVKDMMELVQPSISGVDLDKFREILLRHCDVNKDGKIQKSELALCLGLKINP
B1: the ThT fluorescence, heat-induced fibrillation of insulin with apo-SCGN (1:2 ratio) in assay [1] came to 50%. Also, the Kd in assay [2] came out at 1.45 µM; in assay [3], 1.84 µM.
